Measured values as given in paper PMC5180085.

Columns and labels:
Ku70;Ku80 [1] = biological target: T1, Ku70;Ku80 (human;human, UniProt P12956;P13010 1-609;1-732, |); assay: mwPIFE; mwPIFE, room temp, 30 min: BamHI 10 mM Tris-HCl pH 8, 100 mM KCl, 0.02% Triton X-100, 0.1 mg/ml BSA, 5 mM EDTA/MgCl2/CaCl2; Ku 35 mM Tris-Cl pH 7.9, 5.5% glycerol, 150 mM KCl, 1 mM EDTA, 0.1 mM DTT, 1.5 mM imidazole; XPF/ERCC1 10 mM Tris-Cl pH 8, 10 mM NaCl. FA: 10 mM Tris-HCl pH 8, 10 mM NaCl, 10% glycerol, 1 mM TCEP, 50 nM DNA, 25 C; settings: protein: recombinant;recombinant, tags: ;, copies: 1;1, label: 5' biotin strand 1, blunt
T1 sequence (P12956 whole entry, chain 1 of 2, the tested form may be a part): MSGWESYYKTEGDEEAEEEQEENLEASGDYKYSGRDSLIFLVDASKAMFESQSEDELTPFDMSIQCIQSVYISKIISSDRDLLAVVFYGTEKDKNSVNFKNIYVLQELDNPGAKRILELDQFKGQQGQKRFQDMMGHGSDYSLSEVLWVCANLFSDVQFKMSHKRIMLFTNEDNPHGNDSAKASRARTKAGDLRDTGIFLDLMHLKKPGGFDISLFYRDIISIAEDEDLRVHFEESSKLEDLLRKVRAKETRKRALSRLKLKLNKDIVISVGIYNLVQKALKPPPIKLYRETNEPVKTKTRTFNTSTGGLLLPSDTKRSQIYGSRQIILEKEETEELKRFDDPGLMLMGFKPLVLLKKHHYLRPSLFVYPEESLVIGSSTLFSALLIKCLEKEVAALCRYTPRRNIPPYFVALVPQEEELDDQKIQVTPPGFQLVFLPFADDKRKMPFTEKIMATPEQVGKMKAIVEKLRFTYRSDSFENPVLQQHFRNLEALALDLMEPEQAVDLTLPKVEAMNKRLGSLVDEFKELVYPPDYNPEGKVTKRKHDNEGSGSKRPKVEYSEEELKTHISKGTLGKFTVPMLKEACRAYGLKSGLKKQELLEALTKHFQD
T1 sequence (P13010 whole entry, chain 2 of 2, the tested form may be a part): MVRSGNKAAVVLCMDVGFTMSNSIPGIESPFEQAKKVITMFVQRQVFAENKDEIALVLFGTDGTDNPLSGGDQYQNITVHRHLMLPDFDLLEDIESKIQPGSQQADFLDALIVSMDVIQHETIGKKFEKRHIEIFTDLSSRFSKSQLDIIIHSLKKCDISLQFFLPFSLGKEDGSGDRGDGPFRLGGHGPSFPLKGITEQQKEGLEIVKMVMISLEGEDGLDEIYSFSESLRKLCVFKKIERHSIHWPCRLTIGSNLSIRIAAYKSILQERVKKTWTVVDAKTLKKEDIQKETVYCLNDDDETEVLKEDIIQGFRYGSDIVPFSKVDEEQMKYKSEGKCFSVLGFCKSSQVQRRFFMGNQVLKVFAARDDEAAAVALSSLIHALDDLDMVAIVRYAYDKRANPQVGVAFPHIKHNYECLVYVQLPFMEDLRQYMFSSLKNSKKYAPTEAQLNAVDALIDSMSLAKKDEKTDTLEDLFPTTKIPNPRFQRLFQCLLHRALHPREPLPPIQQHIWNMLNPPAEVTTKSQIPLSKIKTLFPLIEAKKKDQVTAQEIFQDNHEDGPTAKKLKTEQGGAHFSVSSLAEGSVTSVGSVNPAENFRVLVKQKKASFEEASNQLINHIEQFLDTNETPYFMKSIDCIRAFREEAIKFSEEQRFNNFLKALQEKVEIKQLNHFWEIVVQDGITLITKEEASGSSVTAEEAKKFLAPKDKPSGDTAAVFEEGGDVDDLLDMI

[2] = biological target: T2, XPF (truncated);ERCC1 (truncated) (human;human, UniProt Q92889;P07992 640-916;93-297, |); assay: fluorescence anisotropy; mwPIFE, room temp, 30 min: BamHI 10 mM Tris-HCl pH 8, 100 mM KCl, 0.02% Triton X-100, 0.1 mg/ml BSA, 5 mM EDTA/MgCl2/CaCl2; Ku 35 mM Tris-Cl pH 7.9, 5.5% glycerol, 150 mM KCl, 1 mM EDTA, 0.1 mM DTT, 1.5 mM imidazole; XPF/ERCC1 10 mM Tris-Cl pH 8, 10 mM NaCl. FA: 10 mM Tris-HCl pH 8, 10 mM NaCl, 10% glycerol, 1 mM TCEP, 50 nM DNA, 25 C; settings: protein: recombinant;recombinant, tags: none;GST-His6 N-terminal, removed by TEV, copies: 1;1
T2 sequence 1: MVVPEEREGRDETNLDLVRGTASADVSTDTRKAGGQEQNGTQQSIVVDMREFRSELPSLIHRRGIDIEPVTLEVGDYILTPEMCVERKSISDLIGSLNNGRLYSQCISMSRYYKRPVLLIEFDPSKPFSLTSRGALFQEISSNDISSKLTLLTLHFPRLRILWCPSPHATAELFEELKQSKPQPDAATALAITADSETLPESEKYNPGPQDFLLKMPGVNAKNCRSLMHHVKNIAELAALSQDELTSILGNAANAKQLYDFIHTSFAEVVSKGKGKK
T2 sequence 2: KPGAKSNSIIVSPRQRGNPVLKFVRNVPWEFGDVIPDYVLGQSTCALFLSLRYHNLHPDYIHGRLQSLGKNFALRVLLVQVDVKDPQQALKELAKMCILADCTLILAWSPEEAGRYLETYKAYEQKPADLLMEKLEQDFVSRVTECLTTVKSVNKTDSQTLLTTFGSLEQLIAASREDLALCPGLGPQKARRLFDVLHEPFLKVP

[3] = biological target: T3, BamHI restriction endonuclease (UniProt P23940 1-213); assay: competition; Ca2+; mwPIFE, 1-10x excess; mwPIFE, room temp, 30 min: BamHI 10 mM Tris-HCl pH 8, 100 mM KCl, 0.02% Triton X-100, 0.1 mg/ml BSA, 5 mM EDTA/MgCl2/CaCl2; Ku 35 mM Tris-Cl pH 7.9, 5.5% glycerol, 150 mM KCl, 1 mM EDTA, 0.1 mM DTT, 1.5 mM imidazole; XPF/ERCC1 10 mM Tris-Cl pH 8, 10 mM NaCl. FA: 10 mM Tris-HCl pH 8, 10 mM NaCl, 10% glycerol, 1 mM TCEP, 50 nM DNA, 25 C; settings: protein: commercial; chain copies: 2; blunt
T3 sequence: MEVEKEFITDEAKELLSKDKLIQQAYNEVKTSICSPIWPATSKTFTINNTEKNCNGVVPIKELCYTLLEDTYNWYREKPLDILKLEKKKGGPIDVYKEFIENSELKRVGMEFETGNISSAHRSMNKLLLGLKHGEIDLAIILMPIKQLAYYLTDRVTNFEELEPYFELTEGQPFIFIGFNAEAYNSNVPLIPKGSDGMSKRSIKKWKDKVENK

Ku70;Ku80 [4] = biological target: T1, Ku70;Ku80; assay: mwPIFE; mwPIFE, room temp, 30 min: BamHI 10 mM Tris-HCl pH 8, 100 mM KCl, 0.02% Triton X-100, 0.1 mg/ml BSA, 5 mM EDTA/MgCl2/CaCl2; Ku 35 mM Tris-Cl pH 7.9, 5.5% glycerol, 150 mM KCl, 1 mM EDTA, 0.1 mM DTT, 1.5 mM imidazole; XPF/ERCC1 10 mM Tris-Cl pH 8, 10 mM NaCl. FA: 10 mM Tris-HCl pH 8, 10 mM NaCl, 10% glycerol, 1 mM TCEP, 50 nM DNA, 25 C; settings: protein: recombinant;recombinant; tags: ;; copies: 1;1; label: 5' biotin strand 1; 5' Cy3 strand 2; blunt
[5] = biological target: T3, BamHI restriction endonuclease; assay: mwPIFE; 5 mM Ca2+; mwPIFE, room temp, 30 min: BamHI 10 mM Tris-HCl pH 8, 100 mM KCl, 0.02% Triton X-100, 0.1 mg/ml BSA, 5 mM EDTA/MgCl2/CaCl2; Ku 35 mM Tris-Cl pH 7.9, 5.5% glycerol, 150 mM KCl, 1 mM EDTA, 0.1 mM DTT, 1.5 mM imidazole; XPF/ERCC1 10 mM Tris-Cl pH 8, 10 mM NaCl. FA: 10 mM Tris-HCl pH 8, 10 mM NaCl, 10% glycerol, 1 mM TCEP, 50 nM DNA, 25 C; settings: protein: commercial; chain copies: 2; label: 5' biotin strand 1; 5' Cy3 strand 2; blunt
Ku70;Ku80 [6] = biological target: T1, Ku70;Ku80; assay: mwPIFE; internal Cy3, lower PIFE than terminal; mwPIFE, room temp, 30 min: BamHI 10 mM Tris-HCl pH 8, 100 mM KCl, 0.02% Triton X-100, 0.1 mg/ml BSA, 5 mM EDTA/MgCl2/CaCl2; Ku 35 mM Tris-Cl pH 7.9, 5.5% glycerol, 150 mM KCl, 1 mM EDTA, 0.1 mM DTT, 1.5 mM imidazole; XPF/ERCC1 10 mM Tris-Cl pH 8, 10 mM NaCl. FA: 10 mM Tris-HCl pH 8, 10 mM NaCl, 10% glycerol, 1 mM TCEP, 50 nM DNA, 25 C; settings: protein: recombinant;recombinant; tags: ;; copies: 1;1; label: 5' biotin-TEG strand 1; 3' biotin-TEG strand 2; iCy3; blunt; one end free
Ku70;Ku80 [7] = biological target: T1, Ku70;Ku80; assay: mwPIFE; internal Cy3, PIFE falls with distance from free end; mwPIFE, room temp, 30 min: BamHI 10 mM Tris-HCl pH 8, 100 mM KCl, 0.02% Triton X-100, 0.1 mg/ml BSA, 5 mM EDTA/MgCl2/CaCl2; Ku 35 mM Tris-Cl pH 7.9, 5.5% glycerol, 150 mM KCl, 1 mM EDTA, 0.1 mM DTT, 1.5 mM imidazole; XPF/ERCC1 10 mM Tris-Cl pH 8, 10 mM NaCl. FA: 10 mM Tris-HCl pH 8, 10 mM NaCl, 10% glycerol, 1 mM TCEP, 50 nM DNA, 25 C; settings: protein: recombinant;recombinant; tags: ;; copies: 1;1; label: 5' biotin-TEG strand 1; 3' biotin-TEG strand 2; iCy3; blunt; one end free

B1: Btn_12_f/Cy3_12_r (dsDNA)
DNA 1: TAGATAGAGCCA
DNA 2: TGGCTCTATCTA
binding signal (Ku70;Ku80 [1]): 20 % PIFE

B2: 10ds (dsDNA)
DNA 1: CAGCGCTCGG
DNA 2: CCGAGCGCT
Kd ([2]; 5' overhang 1 nt on strand 1 as printed (meant blunt)): 4750 ± 800 nM

B3: B-GC* competitor (one base changed in BamHI site) (dsDNA)
DNA 1: CACAACGCCTGATCCGGCCTAGAT
DNA 2: ATCTAGGCCGGATCAGGCGTTGTG
binding result [3]: no binding

B4: scr competitor (no BamHI site) (dsDNA)
DNA 1: CCGTCCAACAGCGAGGCTGATTAAAGAATTCG
DNA 2: CGAATTCTTTAATCAGCCTCGCTGTTGGACGG
binding result [3]: no binding

B5: Btn_14_f/Cy3_14_r (dsDNA)
DNA 1: CCTAGATAGAGCCA
DNA 2: TGGCTCTATCTAGG
binding signal (Ku70;Ku80 [1]): ~50 % PIFE

B6: Btn_11_f/Cy3_11_r (dsDNA)
DNA 1: AGATAGAGCCA
DNA 2: TGGCTCTATCT
binding signal (Ku70;Ku80 [1]): 7 % PIFE

B7: Btn_13_f/Cy3_13_r (dsDNA)
DNA 1: CTAGATAGAGCCA
DNA 2: TGGCTCTATCTAG
binding signal (Ku70;Ku80 [1]): ~50 % PIFE

B8: Btn_15_f/Cy3_15_r (dsDNA)
DNA 1: ACCTAGATAGAGCCA
DNA 2: TGGCTCTATCTAGGT
Kd (Ku70;Ku80 [4]): 10 ± 5 nM | binding signal (Ku70;Ku80 [1]; 5' Cy3 strand 2): ~50 % PIFE

B9: Btn_25BamHI1_f/Cy3_25BamHI1_r (dsDNA)
DNA 1: CACAACGACCACCTAGATGGATCCA
DNA 2: TGGATCCATCTAGGTGGTCGTTGTG
binding result [5]: binds

B10: BtnT_15_Cy3_15 (internal Cy3 15 nt from free end) (dsDNA)
DNA 1: TTGCATCCTTCACAACGACCACCTAGATAG
DNA 2: CTATCTAGGTGGTCGTTGTGAAGGATGCAA
modifications: internal Cy3 after nt 15 of strand 1
binding result (Ku70;Ku80 [6]): binds

B11: B-GC competitor (substitutions outside site) (dsDNA)
DNA 1: CACAACGCCGGATCCGGCCTAGAT
DNA 2: ATCTAGGCCGGATCCGGCGTTGTG
binding result [3]: binds

B12: C_f/C_r (no BamHI site) (dsDNA)
DNA 1: CACAACGACCACCTAGATAGAGCCAAGCAGTTTACGTACCGTCATTCCCTTCCACGTCATCGAGCTACCGTCGTC
DNA 2: GACGACGGTAGCTCGATGACGTGGAAGGGAATGACGGTACGTAAACTGCTTGGCTCTATCTAGGTGGTCGTTGTG
binding result [5]: no binding

B13: BtnT_15_Cy3_60 (internal Cy3 60 nt from free end) (dsDNA)
DNA 1: TTGCATCCTTCACAACGACCACCTAGATAGAGCCAAGCAGTTTACGTACCGTCATTCCCTTCCACGTCATCGAGC
DNA 2: GCTCGATGACGTGGAAGGGAATGACGGTACGTAAACTGCTTGGCTCTATCTAGGTGGTCGTTGTGAAGGATGCAA
modifications: internal Cy3 after nt 15 of strand 1
binding result (Ku70;Ku80 [7]): binds

B14: Y (splayed arm) (structured_DNA)
DNA 1: CAGCGCTCGGTTTTTTTTTT
DNA 2: TTTTTTTTTTCCGAGCGCTG
Kd ([2]; fork 1:2, 10 bp duplex with two T10 arms): 810 ± 100 nM

CAGCGCTCGGTTTTTTTTTTTTTTTTTTTTCCGAGCGCTG (structured_DNA) [HP (stem-loop)]
Kd ([2]; hairpin): 640 ± 100 nM
